Measured values reported in the supplement of paper PMC10567573.

B1: SAT2 (parent)
chain: IIKKVAEVALDKGCSQFRLAVLDW
B2: CPN1 (parent)
chain: RGVRRTASTPTPDDKLFQKLAKVY

Variants of: B1
Assay: protein stability index of a GFP-peptide fusion (GPS, HEK-293T) (PSI 1-6); higher = more stable
Details: c terminus: a fixed tail appended
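Also: lentivirally expressed fusions sorted by FACS into six bins by GFP to DsRed ratio, PSI derived from sequencing read proportions per bin multiplied by bin number.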

Protein stability index, by site and new letter:
L19: A 1.61, Y 2.61, H 3.62, R 2.5, V 3.77, N 2.69
L10: C 3.52, N 1.17, D 1.75, H 1.99, S 1.05, M 4.14, T 3.02
F17: M 4.35, K 2.69, S 1.03, P 3.25, D 3.24, T 3.18
K12: M 2.73, C 3.59, W 4.21, G 3.51
G13: D 2.79, I 2.37, C 2.45
D23: H 3.77, V 2.16, Y 2.22, I 3.25, F 1.82, M 2.98, C 3.04
Q16: F 4.68, W 1.51, E 3.74
C14: N 4.56, Y 2.62, D 2.61, S 2.97
W24: T 2.24, R 1.28, M 2.37, S 3.1, N 2.22, D 1.37, H 1.04, E 2.23, P 1.65
D11: F 3.5, Y 2.01, Q 2.15, P 4.36, L 1.19
V8: Q 2.94, H 2.58, E 1.2, W 2.76, N 2.01, M 2.59, P 1.7, K 1.6
S15: Y 3.27, Q 1.56, D 2.74, W 1.79, L 3.77
A9: I 2.87, F 2.31, M 2.39, N 2.8
V21: N 1.51, T 1.78, W 3.21, L 4.52, G 3.79, Q 1.04, H 2.52, K 1.87
R18: P 2.17, M 1.8, Y 3.6, L 2.39, S 3.36
L22: W 4.19, K 2, F 1.86, T 3.66, D 1.23, P 2.5
A20: T 2.13, P 2.01

Variants of: B2
Assay: as above
Details: c terminus: a fixed tail appended

Protein stability index: each site, then its substitutions
P10: S 2.09, V 1.79, I 1.48, N 2.06, K 1.8, L 1.02, Y 1.79, M 1.89, D 2.49, R 1.74, W 1.36, F 2.19, A 2.13, Q 1.78, T 1.75, E 2.81, G 2.27, H 1.34, C 2.07
T9: Y 1.52, A 2.07, R 1.3, C 2.57, L 1.27, S 1.94, Q 1.84, G 3.11, F 2.3, K 2.57, N 1.54, W 2.02, H 2.27, M 1.45, V 1.97, I 1.68, P 3
R4: V 2.35, C 3.17, K 1.51, S 2.76, H 2.17, N 1.95, E 2.16, M 2.26, Y 1.54, A 2.01, D 3.69, Q 1.76, W 2.02, L 1.92, I 2.56, G 2.57
R5: V 1.87, G 1.7, Q 2.23, E 2.57, A 3.41, F 1.57, M 2.51, L 2.07, C 3.3, N 2.3, Y 1.89, H 2.35, T 2.94, P 2.79, D 2.69, K 1.85, W 2.2, I 2.33, S 2.23
T11: D 2.26, Y 2.25, A 2.29, K 2.56, G 2.54, Q 2.29, W 1.92, E 2.1, C 1.83, V 1.67, H 2.04, I 1.71, F 1.92, M 2.03, S 1.86, L 1.52, R 1.82, N 2.23
V3: C 2, T 2.89, P 2.35, Y 2.27, H 2.13, N 2.2, M 1.84, K 1.62, S 1.93, G 2.12, R 2.84, W 2.66, F 2.24, I 2.48, A 2.16, Q 1.88, L 2.24, E 2.24, D 2.58
S8: H 1.82, Y 3, D 2.19, M 1.44, E 1.63, L 1.76, G 1.1, N 2.1, T 1.6, Q 2.18, I 1.57, F 1.7, K 2.85, A 2, W 3.14
D13: V 1.78, N 1.89, M 2.59, W 1.61, L 1.65, S 2.02, K 1.88, A 1.97, Q 1.94, C 1.2, G 2.37, T 1.27, Y 2.24, E 1.24, H 2.08, R 1.63, F 1.99
A7: M 1.62, C 1.57, E 2.05, L 1.17, V 2.75, Q 2.37, T 2.07, D 2.05, N 2.54, S 1.97, P 1.85, R 1.71, H 1.41, F 1.25, W 2.59, G 2.38, Y 2
P12: T 1.81, G 2.4, I 1.89, L 1.44, Y 2.94, Q 2.05, W 2.48, M 2.01, A 2.06, N 1.98, R 1.89, S 3.04, C 1.65, V 1.68, H 1.94, K 2.32, D 2.37, F 2.38, E 3.13
D14: H 2.32, L 1.64, E 1.95, N 1.54, I 1.23, G 2.78, F 1.75, C 1.56, A 2.05, R 1.93, K 2.35, Q 2.35, M 2.45
T6: I 1.67, Y 1.59, F 2.07, G 1.74, P 1.23, S 1.97, W 2.02, M 2.02, Q 2, H 1.49, E 2.12, C 1.52, V 2.56, N 1.56, D 2.93, K 1.61, L 1.73, R 1.99
G2: E 2.35, K 2.38, N 3.13, F 1.51, T 2.23, P 2.19, Q 1.94, Y 1.64, C 2.22, A 2.52, S 3.13, I 1.76, M 1.79, L 1.24, R 1.66, D 2.26, H 1.87, V 2.84
R1: Q 2.42, N 2.42, C 1.4, I 1.42, K 1.89, S 2.85, H 2.58, Y 2.93, W 1.02, P 2.27, A 1.4, M 1.93, T 1.49, V 2.34, F 1.92, D 2.27, L 2.88
